We go through four molecules from US20260242735A1 (UNIVERSIT T BASEL, published 2026).

What all share (test): alanine scan, flow cytometry, HEK293-T;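 also: antibody binding to each alanine-substituted CD33 mutant expressed transiently in HEK293-T, read as fluorescence minus background, mean of duplicates, relative to wild-type CD33 set as 100%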
Test [1] deals with human CD33 Y50A (human, UniProt P20138 18-364).
Test [2] deals with human CD33 K52A (human, UniProt P20138 18-364).
For test [3], the target named is human CD33 N53A (human, UniProt P20138 18-364).
Test [4] concerns the target human CD33 P55A (human, UniProt P20138 18-364).
In test [5] the target is human CD33 Y59A (human, UniProt P20138 18-364).
Test [6] deals with human CD33 I67A (human, UniProt P20138 18-364).
Test [7] deals with human CD33 S68A (human, UniProt P20138 18-364).
For test [8], the target named is human CD33 R69A (human, UniProt P20138 18-364).
Test [9] deals with human CD33 N76A (human, UniProt P20138 18-364).
Test [10] deals with human CD33 K77A (human, UniProt P20138 18-364).
The target in test [11] is human CD33 L78A (human, UniProt P20138 18-364).
Test [12] deals with human CD33 Q83A (human, UniProt P20138 18-364).
The target of test [13] is human CD33 R89A (human, UniProt P20138 18-364).
Test [14] has as its target human CD33 R91A (human, UniProt P20138 18-364).
The target in test [15] is human CD33 G94A (human, UniProt P20138 18-364).
Test [16] addresses human CD33 S97A (human, UniProt P20138 18-364).
For test [17], the target named is human CD33 N99A (human, UniProt P20138 18-364).
Test [18] concerns the target human CD33 C101A (human, UniProt P20138 18-364).
The target of test [19] is human CD33 L103A (human, UniProt P20138 18-364).
Test [20] deals with human CD33 A108S (human, UniProt P20138 18-364).
Test [21] addresses human CD33 G114A (human, UniProt P20138 18-364).
Test [22] addresses T1, human CD33 Y127A (human, UniProt P20138 18-364).
T1 construct: alanine scan clone, transfected HEK293-T

The target in test [23] is T2, human CD33 V138A (human, UniProt P20138 18-364).
T2 construct: alanine scan clone, transfected HEK293-T

The target of test [24] is T3, human CD33 T139A (human, UniProt P20138 18-364).
T3 construct: alanine scan clone, transfected HEK293-T

Test [25] concerns the target T4, human CD33 I149A (human, UniProt P20138 18-364).
T4 construct: alanine scan clone, transfected HEK293-T

The target of test [26] is T5, human CD33 P155A (human, UniProt P20138 18-364).
T5 construct: alanine scan clone, transfected HEK293-T

The target of test [27] is T6, human CD33 G156A (human, UniProt P20138 18-364).
T6 construct: alanine scan clone, transfected HEK293-T

In test [28] the target is T7, human CD33 S164A (human, UniProt P20138 18-364).
T7 construct: alanine scan clone, transfected HEK293-T

Test [29] deals with T8, human CD33 W167A (human, UniProt P20138 18-364).
T8 construct: alanine scan clone, transfected HEK293-T

The target of test [30] is T9, human CD33 G172A (human, UniProt P20138 18-364).
T9 construct: alanine scan clone, transfected HEK293-T

The target of test [31] is T10, human CD33 S181A (human, UniProt P20138 18-364).
T10 construct: alanine scan clone, transfected HEK293-T

Test [32] deals with T11, human CD33 A183S (human, UniProt P20138 18-364).
T11 construct: alanine scan clone, transfected HEK293-T

The target of test [33] is T12, human CD33 R190A (human, UniProt P20138 18-364).
T12 construct: alanine scan clone, transfected HEK293-T

Test [34] has as its target T13, human CD33 H193A (human, UniProt P20138 18-364).
T13 construct: alanine scan clone, transfected HEK293-T

For test [35], the target named is T14, human CD33 S195A (human, UniProt P20138 18-364).
T14 construct: alanine scan clone, transfected HEK293-T

In test [36] the target is T15, human CD33 T125A (human, UniProt P20138 18-364).
T15 construct: alanine scan clone, transfected HEK293-T
T15 sequence (P20138 18-364 T125A limits assumed): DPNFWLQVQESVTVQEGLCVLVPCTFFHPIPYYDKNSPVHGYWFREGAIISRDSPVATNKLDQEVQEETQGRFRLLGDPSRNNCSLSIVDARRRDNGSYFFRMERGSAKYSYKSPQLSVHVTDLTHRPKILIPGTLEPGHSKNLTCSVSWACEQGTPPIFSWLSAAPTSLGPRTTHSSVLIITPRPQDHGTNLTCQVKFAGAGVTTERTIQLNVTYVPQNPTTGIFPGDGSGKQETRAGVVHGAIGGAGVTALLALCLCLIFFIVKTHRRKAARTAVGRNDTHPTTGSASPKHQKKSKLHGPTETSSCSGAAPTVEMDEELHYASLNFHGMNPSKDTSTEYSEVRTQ

T5 sequence (P20138 18-364 P155A limits assumed): as the sequence (P20138 18-364 T125A limits assumed) above, with A108T, P138A counted along it
T9 sequence (P20138 18-364 G172A limits assumed): as the sequence (P20138 18-364 T125A limits assumed) above, with A108T, G155A counted along it
T13 sequence (P20138 18-364 H193A limits assumed): as the sequence (P20138 18-364 T125A limits assumed) above, with A108T, H176A counted along it
human CD33 Q83A, sequence (P20138 18-364 Q83A limits assumed): as the sequence (P20138 18-364 T125A limits assumed) above, with Q66A, A108T counted along it
human CD33 L103A, sequence (P20138 18-364 L103A limits assumed): as the sequence (P20138 18-364 T125A limits assumed) above, with L86A, A108T counted along it
T4 sequence (P20138 18-364 I149A limits assumed): as the sequence (P20138 18-364 T125A limits assumed) above, with A108T, I132A counted along it
T7 sequence (P20138 18-364 S164A limits assumed): as the sequence (P20138 18-364 T125A limits assumed) above, with A108T, S147A counted along it
human CD33 P55A, sequence (P20138 18-364 P55A limits assumed): as the sequence (P20138 18-364 T125A limits assumed) above, with P38A, A108T counted along it
T1 sequence (P20138 18-364 Y127A limits assumed): as the sequence (P20138 18-364 T125A limits assumed) above, with A108T, Y110A counted along it
human CD33 L78A, sequence (P20138 18-364 L78A limits assumed): as the sequence (P20138 18-364 T125A limits assumed) above, with L61A, A108T counted along it
human CD33 G114A, sequence (P20138 18-364 G114A limits assumed): as the sequence (P20138 18-364 T125A limits assumed) above, with G97A, A108T counted along it
T10 sequence (P20138 18-364 S181A limits assumed): as the sequence (P20138 18-364 T125A limits assumed) above, with A108T, S164A counted along it
human CD33 R89A, sequence (P20138 18-364 R89A limits assumed): as the sequence (P20138 18-364 T125A limits assumed) above, with R72A, A108T counted along it
human CD33 K77A, sequence (P20138 18-364 K77A limits assumed): as the sequence (P20138 18-364 T125A limits assumed) above, with K60A, A108T counted along it
human CD33 K52A, sequence (P20138 18-364 K52A limits assumed): as the sequence (P20138 18-364 T125A limits assumed) above, with K35A, A108T counted along it
human CD33 A108S, sequence (P20138 18-364 A108S limits assumed): as the sequence (P20138 18-364 T125A limits assumed) above, with A91S, A108T counted along it
T12 sequence (P20138 18-364 R190A limits assumed): as the sequence (P20138 18-364 T125A limits assumed) above, with A108T, R173A counted along it
human CD33 Y50A, sequence (P20138 18-364 Y50A limits assumed): as the sequence (P20138 18-364 T125A limits assumed) above, with Y33A, A108T counted along it
human CD33 I67A, sequence (P20138 18-364 I67A limits assumed): as the sequence (P20138 18-364 T125A limits assumed) above, with I50A, A108T counted along it
human CD33 C101A, sequence (P20138 18-364 C101A limits assumed): as the sequence (P20138 18-364 T125A limits assumed) above, with C84A, A108T counted along it
human CD33 S68A, sequence (P20138 18-364 S68A limits assumed): as the sequence (P20138 18-364 T125A limits assumed) above, with S51A, A108T counted along it
human CD33 Y59A, sequence (P20138 18-364 Y59A limits assumed): as the sequence (P20138 18-364 T125A limits assumed) above, with Y42A, A108T counted along it
human CD33 N99A, sequence (P20138 18-364 N99A limits assumed): as the sequence (P20138 18-364 T125A limits assumed) above, with N82A, A108T counted along it
human CD33 S97A, sequence (P20138 18-364 S97A limits assumed): as the sequence (P20138 18-364 T125A limits assumed) above, with S80A, A108T counted along it
human CD33 G94A, sequence (P20138 18-364 G94A limits assumed): as the sequence (P20138 18-364 T125A limits assumed) above, with G77A, A108T counted along it
T11 sequence (P20138 18-364 A183S limits assumed): as the sequence (P20138 18-364 T125A limits assumed) above, with A108T, A166S counted along it
T14 sequence (P20138 18-364 S195A limits assumed): as the sequence (P20138 18-364 T125A limits assumed) above, with A108T, S178A counted along it
human CD33 N76A, sequence (P20138 18-364 N76A limits assumed): as the sequence (P20138 18-364 T125A limits assumed) above, with N59A, A108T counted along it
human CD33 R69A, sequence (P20138 18-364 R69A limits assumed): as the sequence (P20138 18-364 T125A limits assumed) above, with R52A, A108T counted along it
T2 sequence (P20138 18-364 V138A limits assumed): as the sequence (P20138 18-364 T125A limits assumed) above, with A108T, V121A counted along it
T6 sequence (P20138 18-364 G156A limits assumed): as the sequence (P20138 18-364 T125A limits assumed) above, with A108T, G139A counted along it
human CD33 N53A, sequence (P20138 18-364 N53A limits assumed): as the sequence (P20138 18-364 T125A limits assumed) above, with N36A, A108T counted along it
T8 sequence (P20138 18-364 W167A limits assumed): as the sequence (P20138 18-364 T125A limits assumed) above, with A108T, W150A counted along it
T3 sequence (P20138 18-364 T139A limits assumed): as the sequence (P20138 18-364 T125A limits assumed) above, with A108T, T122A counted along it
human CD33 R91A, sequence (P20138 18-364 R91A limits assumed): as the sequence (P20138 18-364 T125A limits assumed) above, with R74A, A108T counted along it

B1: Refmab #5 (antibody, V domains shown)
VH: QVQLVQSGAEVKKPGASVKVSCKASGYTFTNYDINWVRQAPGQGLEWIGWIYPGDGSTKYNEKFKAKATLTADTSTSTAYMELRSLRSDDTAVYYCASGYEDAMDYWGQGTTVTVSS
VL: DIQMTQSPSSLSASVGDRVTINCKASQDINSYLSWFQQKPGKAPKTLIYRANRLVDGVPSRFSGSGSGQDYTLTISSLQPEDFATYYCLQYDEFPLTFGGGTKVEIK
notes: Full-length format is human IgG1 Fc silent (PG-LALA); also made as Fab; The alanine scan used IgG or Fab
In the case of B1, the “Mean % WT Binding” value in test [1] came out at 55.7 % WT binding; in test [2], 11.9 % WT binding; in test [3], 97.6 % WT binding; in test [4], 118 % WT binding; in [5], 205 % WT binding; in test [6], 157 % WT binding. The “Mean % WT Binding” value was determined as 142 % WT binding in [7]; 164 % WT binding in [8]; 124 % WT binding in test [9]; 124 % WT binding in [10]; 99.3 % WT binding in [11]; 97 % WT binding in [12]. Moreover, the “Mean % WT Binding” value in test [13] worked out at 137 % WT binding; in test [14] it was 101 % WT binding; in test [15], 92.2 % WT binding; in test [16], 126 % WT binding; in [17], 88.4 % WT binding; in test [18], 23 % WT binding. For the same molecule, the “Mean % WT Binding” value in [19] was determined as 91.6 % WT binding; in [20] it was 105 % WT binding; in test [21], 79 % WT binding.

B2: Refmab #5 (antibody, V domains shown)
VH: QVQLVQSGAEVKKPGASVKVSCKASGYTFTNYDINWVRQAPGQGLEWIGWIYPGDGSTKYNEKFKAKATLTADTSTSTAYMELRSLRSDDTAVYYCASGYEDAMDYWGQGTTVTVSS
VL: DIQMTQSPSSLSASVGDRVTINCKASQDINSYLSWFQQKPGKAPKTLIYRANRLVDGVPSRFSGSGSGQDYTLTISSLQPEDFATYYCLQYDEFPLTFGGGTKVEIK
notes: The alanine scan used IgG or Fab
B2: the “Mean % WT Binding” value in test [22] is 199 % WT binding; in [23] it was 101 % WT binding; in [24] it was 104 % WT binding; in [25], 112 % WT binding; in test [26], 140 % WT binding; in test [27] it was 92.3 % WT binding. The “Mean % WT Binding” value in test [28] turned out to be 110 % WT binding; in [29] it was 95.5 % WT binding; in [30], 92.7 % WT binding; in [31] it was 128 % WT binding; in test [32] it was 101 % WT binding; in test [33] it was 112 % WT binding. Moreover, the “Mean % WT Binding” value in [34] stood at 119 % WT binding; in test [35] it was 117 % WT binding; in test [36], 56.7 % WT binding.

B3: Refmab #6 (antibody, V domains shown)
VH: QVQLQQPGAEVVKPGASVKMSCKASGYTFTSYYIHWIKQTPGQGLEWVGVIYPGNDDISYNQKFQGKATLTADKSSTTAYMQLSSLTSEDSAVYYCAREVRLRYFDVWGQGTTVTVSS
VL: EIVLTQSPGSLAVSPGERVTMSCKSSQSVFFSSSQKNYLAWYQQIPGQSPRLLIYWASTRESGVPDRFTGSGSGTDFTLTISSVQPEDLAIYYCHQYLSSRTFGQGTKLEIK
notes: as for B1
B3: the “Mean % WT Binding” value in test [1] turned out to be 113 % WT binding; in test [2], 77 % WT binding; in test [3], 96.8 % WT binding; in [4], 101 % WT binding; in test [5], 83.2 % WT binding; in [6] it was 108 % WT binding. The “Mean % WT Binding” value in [7] is 86.4 % WT binding; in test [8] it was 101 % WT binding; in test [9], 86.8 % WT binding; in [10] it was 79.9 % WT binding; in [11] it was 110 % WT binding; in test [12], 108 % WT binding. Moreover, the “Mean % WT Binding” value in [13] was 80.8 % WT binding; in test [14] it was 91.4 % WT binding; in test [15], 93.1 % WT binding; in [16] it was 93.7 % WT binding; in test [17] it was 92 % WT binding; in test [18], 6.2 % WT binding. Further, the results for the “Mean % WT Binding” value in [19], in test [20] and in test [21] were 61.5 % WT binding, 78.4 % WT binding and 106 % WT binding, respectively.

B4: Refmab #6 (antibody, V domains shown)
VH: QVQLQQPGAEVVKPGASVKMSCKASGYTFTSYYIHWIKQTPGQGLEWVGVIYPGNDDISYNQKFQGKATLTADKSSTTAYMQLSSLTSEDSAVYYCAREVRLRYFDVWGQGTTVTVSS
VL: EIVLTQSPGSLAVSPGERVTMSCKSSQSVFFSSSQKNYLAWYQQIPGQSPRLLIYWASTRESGVPDRFTGSGSGTDFTLTISSVQPEDLAIYYCHQYLSSRTFGQGTKLEIK
notes: as for B2
Regarding B4, the “Mean % WT Binding” value in test [22] amounted to 42 % WT binding; in test [23] it was 65.4 % WT binding; in test [24], 97.7 % WT binding; in [25], 100 % WT binding; in test [26], 104 % WT binding; in test [27], 88.1 % WT binding. Further, the “Mean % WT Binding” value in test [28] is 100 % WT binding; in test [29] it was 90.5 % WT binding; in test [30], 76.8 % WT binding; in test [31], 102 % WT binding; in [32], 92.3 % WT binding; in [33], 112 % WT binding. The “Mean % WT Binding” value in [34] was found to be 100 % WT binding; in test [35], 113 % WT binding; in test [36], 112 % WT binding.
